Measurements from the RNAGym collection of RNA variant scans (doi:10.1021/acssynbio.7b00057).

B1: Pistol ribozyme (parent)
chain: GGGUCGUUGUUCCAUAAUCGCGUGGAUAUGGCACGCAAGUUUCUACCGGGCACCGUAAAUGUCCGACUGGAGCCGUUCGGGCGGCUAUAAACAGACCUCAGGCCCGAAGCGUGGCGGCACCUGCCGCCGGUGGUAAAAAAGAUCGGAAGAGCACACGUCU

Variants of: B1
Experiment: aptazyme ON/OFF ratio, guanine; higher = stronger switching; co-transcriptional cleavage with and without guanine

Variant	aptazyme ON/OFF ratio
U7A U10A C12G	1.22
U7A U10A C12U	1.1
U7A U10A C12A	1.31
U7A U8G U11A C13G	1.4
U7A U8G U11A C13A	1.31
U7A U8G U11A C13U	1.11
U7A U10A U11A C12A C13G	1.14
U7A U10A U11A C12A C13A	1.23
U7A U10A U11A C12A C13U	1.21
U7A U10C U11G	1.25
U7A U10C U11C	1.03
U7A U10C U11A	1.2
U7A U8G U10C U11C C13U	1.12
U7A U8G U10C U11C C13G	1.13
U7A U8G U10C U11C C13A	1.06
U7A U10C C12G C13G	1.35
U7A U10C C12G C13U	1.28
U7A U10C C12G C13A	1.29
U7A U10A U11C C12G C13U	1.1
U7A U10A U11C C12G C13G	1.17
U7A U10A U11C C12G C13A	1.08
U7A U10G U11A C13U	1.06
U7A U10G U11A C13G	1.09
U7A U10G U11A C13A	1.11

Variant	aptazyme ON/OFF ratio
U7A U8G U10C C13G	1.32
U7A U8G U10C C13U	1.4
U7A U8G U10C C13A	1.45
U7A U10C C12U C13G	1.09
U7A U10C C12U C13U	1.33
U7A U10C C12U C13A	1.16
U7A U8G U10G U11G C12U	1.42
U7A U8G U10G U11G C12A	1.24
U7A U8G U10G U11G C12G	1.31
U7A U10A U11C C12A C13U	1.11
U7A U10A U11C C12A C13A	1.1
U7A U10A U11C C12A C13G	1.03
U7A U10G U11C C12A	1.76
U7A U8G U10G C13A	1.26
U7A U8G U10G C13G	1.14
U7A U8G U10G C13U	1.55
U7A U8G U10G U11A C12A C13U	1.34
U7A U8G U10G U11A C12A C13A	1.55
U7A U8G U10G U11A C12A C13G	1.27
U7A U8G U10C U11A C12A C13U	1.37
U7A U8G U10C U11A C12A C13A	1.27
U7A U8G U10C U11A C12A C13G	1.53
U7A U8G U11C	1.32
U7A U8G U11G	1.95

Variant	aptazyme ON/OFF ratio
U7A U8G U11A	1.49
U7A U10A U11A C12A	1.11
U7A U10A U11A C12U	1.2
U7A U10A U11A C12G	1.18
U7A U10A C12A C13G	1.1
U7A U10A C12A C13A	1.27
U7A U10A C12A C13U	1.39
U7A U10C U11G C12A C13U	1.26
U7A U10C U11G C12A C13A	1.28
U7A U10C U11G C12A C13G	1.23
U7A U10A U11A C13G	1.15
U7A U10A U11A C13A	1.19
U7A U10A U11A C13U	1.16
U7A U10A U11G C13G	1.3
U7A U10A U11G C13A	1.31
U7A U10A U11G C13U	1.19
U7A U10G U11C C12A C13G	1.12
U7A U10G U11C C12A C13U	1.2
U7A U10G U11C C12A C13A	1.33
U7A U8G U10G U11A C13A	1.4
U7A U8G U10G U11A C13U	1.3
U7A U8G U10G U11A C13G	1.27
U7A U8G U10G U11G C13U	1.32
U7A U8G U10G U11G C13G	1.29

Variant	aptazyme ON/OFF ratio
U7A U8G U10G U11G C13A	1.39
U7A U8G U10G C12G C13U	1.21
U7A U8G U10G C12G C13A	1.26
U7A U8G U10G C12G C13G	1.3
U7A U8G U10G U11A C12G	1.59
U7A U8G U10G U11A C12U	1.33
U7A U8G U10G U11A C12A	1.09
U7A U10A U11A	1.21
U7A U10A U11G	1.35
U7A U10A U11C	1
U7A U8G U10C U11C C12U	1.53
U7A U8G U10C U11C C12A	1.62
U7A U8G U10C U11C C12G	1.42
U7A U8G U11G C13U	1.31
U7A U8G U11G C13G	1.24
U7A U8G U11G C13A	1.26
U7A U10G C12G C13G	1.08
U7A U10G C12G C13U	1.2
U7A U10G C12G C13A	1.08
U7A U10A U11A C12U C13A	1.15
U7A U10A U11A C12U C13U	1.22
U7A U10A U11A C12U C13G	1.26
U7A U8G U10C C12G C13U	1.28
U7A U8G U10C C12G C13G	1.05

Variant	aptazyme ON/OFF ratio
U7A U10C U11A C12U C13A	1.17
U7A U10C U11A C12U C13U	1.26
U7A U10C U11A C12U C13G	1.14
U7A U8G U10G U11C C12U C13A	0.988
U7A U8G U10G U11C C12U C13G	1.11
U7A U8G U10G U11C C12U C13U	1.41
U7A U10C U11A C12G C13A	1.22
U7A U10C U11A C12G C13U	1.29
U7A U10C U11A C12G C13G	1.26
U7A U10A C12U C13A	1.18
U7A U10A C12U C13U	1.27
U7A U10A C12U C13G	1.14
U7A U10C U11C C12G C13U	1.06
U7A U10C U11C C12G C13G	1.09
U7A U10C U11C C12G C13A	1.04
U7A U10C C12A C13G	1.12
U7A U10C C12A C13A	1.35
U7A U10C C12A C13U	1.21
U7A U8G U10G U11G C12U C13A	1.31
U7A U8G U10G U11G C12U C13G	1.33
U7A U8G U10G U11G C12U C13U	1.38
U7A U10G C12U	1.29
U7A U10G C12G	1.36
U7A U10G C12A	1.16

Variant	aptazyme ON/OFF ratio
U7A U10A U11C C13A	1.02
U7A U10A U11C C13G	1.03
U7A U10A U11C C13U	1
U7A U8G U11A C12U C13G	1.35
U7A U8G U11A C12U C13A	1.5
U7A U8G U11A C12U C13U	1.18
U7A U8G U10G U11G C12A C13A	1.22
U7A U8G U10G U11G C12A C13G	1.47
U7A U8G U10G U11G C12A C13U	1.41
U7A U8G U10C U11G C12G C13G	1.35
U7A U8G U10C U11G C12G C13A	1.19
U7A U8G U10C U11G C12G C13U	1.41
U7A U8G U10C C12U C13U	1.51
U7A U8G U10C C12U C13G	1.4
U7A U8G U10C C12U C13A	1.55
U7A U10C C13G	1.08
U7A U10C C13A	1.06
U7A U10C C13U	1.13
U7A U10A C13G	1.05
U7A U10A C13U	1.07
U7A U10A C13A	1.07
U7A U8G U11C C12U C13G	1.03
U7A U8G U11C C12U C13U	1.36
U7A U8G U11C C12U C13A	1.43

Variant	aptazyme ON/OFF ratio
U7A U8G U10C U11G C13A	1.23
U7A U8G U10C U11G C13U	1.53
U7A U8G U10C U11G C13G	1.07
U7A U8G U10C U11A C13G	1.21
U7A U8G U10C U11A C13A	1.45
U7A U8G U10C U11A C13U	1.21
U7A U10C U11G C12U C13A	1.27
U7A U10C U11G C12U C13G	1.31
U7A U10C U11G C12U C13U	1.2
U7A U8G U10G U11A C12G C13G	1.46
U7A U8G U10G U11A C12G C13U	1.46
U7A U8G U10G U11A C12G C13A	1.24
U7A U8G U11C C13G	1.35
U7A U8G U11C C13A	1.51
U7A U8G U11C C13U	1.11
U7A U10G U11A	1.06
U7A U10G U11C	1.04
U7A U8G U11G C12U	1.29
U7A U8G U11G C12G	1.36
U7A U8G U11G C12A	1.31
U7A U10C U11G C13G	1.2
U7A U10C U11G C13A	1.24
U7A U10C U11G C13U	1.17
